In the supplement of paper PMC5998384:

Key:
[1] = tested on: HeLa Kyoto; assay: melting temperature (median over replicates), in situ; higher = more thermally stable
[2] = tested on: HeLa Kyoto; assay: thermal stability score vs G1/S (z-score of summed log2 fold changes over temperatures); higher = more thermally stable than in G1/S
[3] = cell cycle stage: early G1 (4.5 h after nocodazole release)
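Wherever melting temperature (median over replicates), in situ is given: HeLa Kyoto cells synchronized by double thymidine or nocodazole block, proteins quantified by TMT10plex mass spectrometry, three independent biological replicates.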
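Wherever thermal stability score vs G1/S (z-score of summed log2 fold changes over temperatures) is given: synchronized HeLa Kyoto cells, proteins quantified by TMT10plex mass spectrometry, three biological replicates, mitosis taken 0.5 h after nocodazole release, G1/S directly after double thymidine block.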

Substance | melting temperature ([1]; cell cycle stage: G1/S) | melting temperature ([1]; cell cycle stage: mitosis) | thermal stability score [2, 3] | thermal stability score ([2]; cell cycle stage: mitosis)
MEAVVNLYQEVMKHADPRIQGYPLMGSPLLMTSILLTYVYFVLSLGPRIMANRKPFQLRGFMIVYNFSLVALSLYIVYEFLMSGWLSTYTWRCDPVDYSNSPEALRMVRVAWLFLFSKFIELMDTVIFILRKKDGQVTFLHVFHHSVLPWSWWWGVKIAPGGMGSFHAMINSSVHVIMYLYYGLSAFGPVAQPYLWWKKHMTAIQLIQFVLVSLHISQYYFMSSCNYQYPVIIHLIWMYGTIFFMLFSNFWYHSYTKGKRLPRALQQNGAPGIAKVKAN [ELOVL1] | 52.8 °C | 52.4 °C | 2.04 | 1.9
MIKAILIFNNHGKPRLSKFYQPYSEDTQQQIIRETFHLVSKRDENVCNFLEGGLLIGGSDNKLIYRHYATLYFVFCVDSSESELGILDLIQVFVETLDKCFENVCELDLIFHVDKVHNILAEMVMGGMVLETNMNEIVTQIDAQNKLEKSEAGLAGAPARAVSAVKNMNLPEIPRNINIGDISIKVPNLPSFK [AP3S1] | 50.8 °C | 51.2 °C | -0.187 | -0.378
MANAEVSVPVGDVVVVPTEGNEGENPEDTKTQVILQLQPVQQGLFIDGHFYNRIYEAGSENNTAVVAVETHTIHKIEEGIDTGTIEANEDMEIAYPITCGESKAILLWKKFVCPGINVKCVKFNDQLISPKHFVHLAGKSTLKDWKRAIRLGGIMLRKMMDSGQIDFYQHDKVCSNTCRSTKFDLLISSARAPVPGQQTSVVQTPTSADGSITQIAISEESMEEAGLEWNSALTAAVTMATEEGVKKDSEEISEDTLMFWKGIADVGLMEEVVCNIQKEIEELLRGVQQRLIQAPFQVTDAAVLNNVAHTFGLMDTVKKVLDNRRNQVEQGEEQFLYTLTDLERQLEEQKKQGQDHRLKSQTVQNVVLMPVSTPKPPKRPRLQRPASTTVLSPSPPVQQPQFTVISPITITPVGQSFSMGNIPVATLSQGSSPVTVHTLPSGPQLFRYATVVSSAKSSSPDTVTIHPSSSLALLSSTAMQDGSTLGNMTTMVSPVELVAMESGLTSAIQAVESTSEDGQTIIEIDPAPDPEAEDTEGKAVILETELRTEEKVVAEMEEHQHQVHNVEIVVLED [GMEB1] | 49 °C |  | 0.789 | 2.68
METDLNSQDRKDLDKFIKFFALKTVQVIVQARLGEKICTRSSSSPTGSDWFNLAIKDIPEVTHEAKKALAGQLPAVGRSMCVEISLKTSEGDSMELEIWCLEMNEKCDKEIKVSYTVYNRLSLLLKSLLAITRVTPAYRLSRKQGHEYVILYRIYFGEVQLSGLGEGFQTVRVGTVGTPVGTITLSCAYRINLAFMSTRQFERTPPIMGIIIDHFVDRPYPSSSPMHPCNYRTAGEDTGVIYPSVEDSQEVCTTSFSTSPPSQLSSSRLSYQPAALGVGSADLAYPVVFAAGLNATHPHQLMVPGKEGGVPLAPNQPVHGTQADQERLATCTPSDRTHCAATPSSSEDTETVSNSSEGRASPHDVLETIFVRKVGAFVNKPINQVTLTSLDIPFAMFAPKNLELEDTDPMVNPPDSPETESPLQGSLHSDGSSGGSSGNTHDDFVMIDFKPAFSKDDILPMDLGTFYREFQNPPQLSSLSIDIGAQSMAEDLDSLPEKLAVHEKNVREFDAFVETLQ [ATG13] | 51.7 °C | 52.2 °C | 0.178 | -1.05
MGVNAVHWFRKGLRLHDNPALKECIQGADTIRCVYILDPWFAGSSNVGINRWRFLLQCLEDLDANLRKLNSRLFVIRGQPADVFPRLFKEWNITKLSIEYDSEPFGKERDAAIKKLATEAGVEVIVRISHTLYDLDKIIELNGGQPPLTYKRFQTLISKMEPLEIPVETITSEVIEKCTTPLSDDHDEKYGVPSLEELGFDTDGLSSAVWPGGETEALTRLERHLERKAWVANFERPRMNANSLLASPTGLSPYLRFGCLSCRLFYFKLTDLYKKVKKNSSPPLSLYGQLLWREFFYTAATNNPRFDKMEGNPICVQIPWDKNPEALAKWAEGRTGFPWIDAIMTQLRQEGWIHHLARHAVACFLTRGDLWISWEEGMKVFEELLLDADWSINAGSWMWLSCSSFFQQFFHCYCPVGFGRRTDPNGDYIRRYLPVLRGFPAKYIYDPWNAPEGIQKVAKCLIGVNYPKPMVNHAEASRLNIERMKQIYQQLSRYRGLGLLASVPSNPNGNGGFMGYSAENIPGCSSSGSCSQGSGILHYAHGDSQQTHLLKQGRSSMGTGLSGGKRPSQEEDTQSIGPKVQRQSTN [CRY1] |  | 52 °C | 0.298 | -0.281
MESQKEARTLQEPVARPSGASSSQTPNDKERREGGAVPAAAALGAEADDDSADGLWELPVEPAERRPECTRCSRPQKVCLCPFLPAHPLHISTHLYIIQHPAEENKVLRTVPLLAACLPQDKCKVKIGRRFSEERDPELSTVCRKSGTLILYPGAEAANLEEFILDSPVYPSTIIIIDGTWSQAKDIFYKNSLFRHPKQVQLKTSISSQYVIRMQPTNRCLSTLECAAVALSILEKNNYIQETLLRPLQALCSFQLQHGAQIRLSKEHLLKNGLYPKPMPKNKRKLRKMELLMNSVKI [DTWD2] |  | 51.2 °C | 0.37 | 0.624
MESALAVPRLPPHDPGTPVLSVVDMHTGGEPLRIVLAGCPEVSGPTLLAKRRYMRQHLDHVRRRLMFEPRGHRDMYGAVLVPSELPDAHLGVLFLHNEGYSSMCGHAVLALGRFALDFGLVPAPPAGTREARVNIHCPCGLVTAFVACEDGRSHGPVRFHSVPAFVLATDLMVDVPGHGKVMVDIAYGGAFYAFVTAEKLGLDICSAKTRDLVDAASAVTEAVKAQFKINHPDSEDLAFLYGTILTDGKDAYTKEPTTNICVFADEQVDRSPTGSGVTARIALQYHKGLLELNQMRAFKSSATGSVFTGKAVREAKCGDFKAVIVEVSGQAHYTGTASFIIEDDDPLRDGFLLK [L3HYPDH] | 55.6 °C | 54.4 °C | 0.886 | 0.62
MGRSRSRSPRRERRRSRSTSRERERRRRERSRSRERDRRRSRSRSPHRRRSRSPRRHRSTSPSPSRLKERRDEEKKETKETKSKERQITEEDLEGKTEEEIEMMKLMGFASFDSTKGKKVDGSVNAYAINVSQKRKYRQYMNRKGGFNRPLDFIA [SNRNP27] | 54 °C | 53.3 °C | 1.03 | 0.903
MGSQEVLGHAARLASSGLLLQVLFRLITFVLNAFILRFLSKEIVGVVNVRLTLLYSTTLFLAREAFRRACLSGGTQRDWSQTLNLLWLTVPLGVFWSLFLGWIWLQLLEVPDPNVVPHYATGVVLFGLSAVVELLGEPFWVLAQAHMFVKLKVIAESLSVILKSVLTAFLVLWLPHWGLYIFSLAQLFYTTVLVLCYVIYFTKLLGSPESTKLQTLPVSRITDLLPNITRNGAFINWKEAKLTWSFFKQSFLKQILTEGERYVMTFLNVLNFGDQGVYDIVNNLGSLVARLIFQPIEESFYIFFAKVLERGKDATLQKQEDVAVAAAVLESLLKLALLAGLTITVFGFAYSQLALDIYGGTMLSSGSGPVLLRSYCLYVLLLAINGVTECFTFAAMSKEEVDRYNFVMLALSSSFLVLSYLLTRWCGSVGFILANCFNMGIRITQSLCFIHRYYRRSPHRPLAGLHLSPVLLGTFALSGGVTAVSEVFLCCEQGWPARLAHIAVGAFCLGATLGTAFLTETKLIHFLRTQLGVPRRTDKMT [RFT1] | 57.1 °C | 56.9 °C | -1.46 | -1.12
MYH14 | 53.1 °C | 52.2 °C | -0.174 | -1.24
MSGTRASNDRPPGAGGVKRGRLQQEAAATGSRVTVVLGAQWGDEGKGKVVDLLATDADIISRCQGGNNAGHTVVVDGKEYDFHLLPSGIINTKAVSFIGNGVVIHLPGLFEEAEKNEKKGLKDWEKRLIISDRAHLVFDFHQAVDGLQEVQRQAQEGKNIGTTKKGIGPTYSSKAARTGLRICDLLSDFDEFSSRFKNLAHQHQSMFPTLEIDIEGQLKRLKGFAERIRPMVRDGVYFMYEALHGPPKKILVEGANAALLDIDFGTYPFVTSSNCTVGGVCTGLGIPPQNIGDVYGVVKAYTTRVGIGAFPTEQINEIGGLLQTRGHEWGVTTGRKRRCGWLDLMILRYAHMVNGFTALALTKLDILDVLGEVKVGVSYKLNGKRIPYFPANQEMLQKVEVEYETLPGWKADTTGARRWEDLPPQAQNYIRFVENHVGVAVKWVGVGKSRESMIQLF [ADSSL1] | 55.3 °C | 55.4 °C | -1.69 | -2.13
MLKPALEPRGGFSFENCQRNASLERVLPGLKVPHARKTGTTIAGLVFQDGVILGADTRATNDSVVADKSCEKIHFIAPKIYCCGAGVAADAEMTTRMVASKMELHALSTGREPRVATVTRILRQTLFRYQGHVGASLIVGGVDLTGPQLYGVHPHGSYSRLPFTALGSGQDAALAVLEDRFQPNMTLEAAQGLLVEAVTAGILGDLGSGGNVDACVITKTGAKLLRTLSSPTEPVKRSGRYHFVPGTTAVLTQTVKPLTLELVEETVQAMEVE [PSMB10] | 53.3 °C | 52.6 °C | 0.227 | 0.56
MGLPALEFSDCCLDSPHFRETLKSHEAELDKTNKFIKELIKDGKSLISALKNLSSAKRKFADSLNEFKFQCIGDAETDDEMCIARSLQEFATVLRNLEDERIRMIENASEVLITPLEKFRKEQIGAAKEAKKKYDKETEKYCGILEKHLNLSSKKKESQLQEADSQVDLVRQHFYEVSLEYVFKVQEVQERKMFEFVEPLLAFLQGLFTFYHHGYELAKDFGDFKTQLTISIQNTRNRFEGTRSEVESLMKKMKENPLEHKTISPYTMEGYLYVQEKRHFGTSWVKHYCTYQRDSKQITMVPFDQKSGGKGGEDESVILKSCTRRKTDSIEKRFCFDVEAVDRPGVITMQALSEEDRRLWMEAMDGREPVYNSNKDSQSEGTAQLDSIGFSIIRKCIHAVETRGINEQGLYRIVGVNSRVQKLLSVLMDPKTASETETDICAEWEIKTITSALKTYLRMLPGPLMMYQFQRSFIKAAKLENQESRVSEIHSLVHRLPEKNRQMLQLLMNHLANVANNHKQNLMTVANLGVVFGPTLLRPQEETVAAIMDIKFQNIVIEILIENHEKIFNTVPDMPLTNAQLHLSRKKSSDSKPPSCSERPLTLFHTVQSTEKQEQRNSIINSSLESVSSNPNSILNSSSSLQPNMNSSDPDLAVVKPTRPNSLPPNPSPTSPLSPSWPMFSAPSSPMPTSSTSSDSSPVRSVAGFVWFSVAAVVLSLARSSLHAVFSLLVNFVPCHPNLHLLFDRPEEAVHEDSSTPFRKAKALYACKAEHDSELSFTAGTVFDNVHPSQEPGWLEGTLNGKTGLIPENYVEFL [ARHGAP26] |  | 52 °C | -0.227 | -0.147
MNSGVAMKYGNDSSAELSELHSAALASLKGDIVELNKRLQQTERERDLLEKKLAKAQCEQSHLMREHEDVQERTTLRYEERITELHSVIAELNKKIDRLQGTTIREEDEYSELRSELSQSQHEVNEDSRSMDQDQTSVSIPENQSTMVTADMDNCSDLNSELQRVLTGLENVVCGRKKSSCSLSVAEVDKHIEQLTTASEHCDLAIKTVEEIEGVLGRDLYPNLAEERSRWEKELAGLREENESLTAMLCSKEEELNRTKATMNAIREERDRLRRRVRELQTRLQSVQATGPSSPGRLTSTNRPINPSTGELSTSSSSNDIPIAKIAERVKLSKTRSESSSSDRPVLGSEISSIGVSSSVAEHLAHSLQDCSNIQEIFQTLYSHGSAISESKIREFEVETERLNSRIEHLKSQNDLLTITLEECKSNAERMSMLVGKYESNATALRLALQYSEQCIEAYELLLALAESEQSLILGQFRAAGVGSSPGDQSGDENITQMLKRAHDCRKTAENAAKALLMKLDGSCGGAFAVAGCSVQPWESLSSNSHTSTTSSTASSCDTEFTKEDEQRLKDYIQQLKNDRAAVKLTMLELESIHIDPLSYDVKPRGDSQRLDLENAVLMQELMAMKEEMAELKAQLYLLEKEKKALELKLSTREAQEQAYLVHIEHLKSEVEEQKEQRMRSLSSTSSGSKDKPGKECADAASPALSLAELRTTCSENELAAEFTNAIRREKKLKARVQELVSALERLTKSSEIRHQQSAEFVNDLKRANSNLVAAYEKAKKKHQNKLKKLESQMMAMVERHETQVRMLKQRIALLEEENSRPHTNETSL [MCC] |  |  | 0.157 | -0.438
